According to publication PMC12541693:

What was measured:
Assay in all cases: potentiometry
Conditions in all cases: 298.2 K; 0.1 M KCl; none (unbuffered, KCl background); metal-free (apo) peptide
[1] = target: Asp11 (position 11, …-)
[2] = target: Lys14 (position 14, MVDAYKG----)
[3] = target: Tyr13 (position 13, VMVDAYKG---)
[4] = target: Tyr12 (position 12, VMVDAYKG---)
[5] = target: Lys13 (position 13, MVDAYKG----)
[6] = target: Asp10 (position 10, …-)

Protein | pKa [1] | pKa [2] | pKa [3] | pKa [4] | pKa [5] | pKa [6]
GWHHAQIVMVDAYKG [Pep2 (bis-histidyl minimal SpyTag peptide with Ala spacer) (synthetic construct (SpyTag-derived))] | 3.67(5) | 10.16(5) | 9.7(1) |  |  | 
GWHHQIVMVDAYKG [Pep1 (bis-histidyl minimal SpyTag peptide) (synthetic construct (SpyTag-derived))] |  |  |  | 9.51(7) | 10.10(9) | 3.65(4)
